Test results reported in patent US20140051120A1 (Genentech, published 2014).

T1: p5 peptide of EGFL7 (human)
T1 construct: also called Peptide P5
T1 peptide: RACSTYRTIYRTA

T2: mouse EGFL7 (mEGFL7-CB-His) (mouse, UniProt Q9QXT5 22-275)
T2 sequence: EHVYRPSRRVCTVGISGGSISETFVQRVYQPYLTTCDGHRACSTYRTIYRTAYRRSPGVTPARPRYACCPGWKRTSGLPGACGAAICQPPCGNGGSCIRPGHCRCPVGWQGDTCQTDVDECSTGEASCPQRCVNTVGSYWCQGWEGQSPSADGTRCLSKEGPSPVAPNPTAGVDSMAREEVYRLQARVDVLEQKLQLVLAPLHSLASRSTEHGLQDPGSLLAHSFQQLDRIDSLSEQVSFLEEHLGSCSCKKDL


Assays:
[1] = target: T1, p5 peptide of EGFL7; experiment: SPR (Biacore), IgG over immobilized P5 peptide at 37 C;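 also: IgG variants injected at 0.5–1000 nM (2-fold series), 3 min association and 3.5 min dissociation, reference flow cell subtracted, kinetics fitted with a 1:1 Langmuir model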
[2] = target: T2, mouse EGFL7 (mEGFL7-CB-His); experiment: SPR (Biacore), IgG over immobilized mEGFL7-CB at 37 C;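 also: IgG injected as twofold series from 0.5 to 1000 nM, 3 min association and 3.5 min dissociation, reference flow cell subtracted, kinetics fitted to 1:1 Langmuir model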
Method: Affinity determinations were performed by surface plasmon resonance using a BIAcore™-2000. Truncated EGFL7 or p5 peptide was immobilized (approximately 50-200 RU) in 10 mM sodium acetate pH 4.8 on a CMS sensor chip. Purified IgG variants were injected (using a 2-fold serial dilution of 0.5 to 1000 nM in PBST) at a flow rate of 30 μL/min. Each sample was analyzed with 3-minute association and 3.5-minute disassociation. After each injection the chip was regenerated using 10 mM glycine pH 1.7.
Binding response was corrected by subtracting a control flow cell from IgG variant flow cells. A 1:1 Languir model of simultaneous fitting of kₒₙ and koff was used for kinetics analysis.

Row | Binder | Kd [1] [nM] | koff [1] [s⁻¹] | kon [1] [M⁻¹ s⁻¹] | Kd [2] [nM] | koff [2] [s⁻¹] | kon [2] [M⁻¹ s⁻¹]
1 | 18F7.v3 IgG (antibody, name in Kabat numbering, V domains shown, IgG; Kabat numbering; also called 18F7-KA) VH: EVQLVESGGGLVQPGGSLRLSCAASGYTFIDYYMNWVRQAPGKGLEWVGDINLDNGGTHYNQKFKGRFTISRDKSKNTAYLQMNSLRAEDTAVYYCAREGVYHDYDDYAMDYWGQGTLVTVSS VL: DIQMTQSPSSLSASVGDRVTITCRTSQSLVHINGITYLHWYQQKPGKAPKLLIYRVSNRFSGVPSRFSGSGSGTDFTLTISSLQPEDFATYYCSQSTHVPLTFGQGTKVEIKR | 4.22 | 0.000858 | 203000 | 1.64 | 9.05e-05 | 55000
2 | 18F7.v1 IgG (18F7-graft) (antibody, V domains shown, Expressed as IgG) VH: EVQLVESGGGLVQPGGSLRLSCAASGYTFIDYYMNWVRQAPGKGLEWVGDINLDNGGTHYNQKFKGRFTISRDNSKNTLYLQMNSLRAEDTAVYYCAREGVYHDYDDYAMDYWGQGTLVTVSS VL: DIQMTQSPSSLSASVGDRVTITCRTSQSLVHINGITYLHWYQQKPGKAPKLLIYRVSNRFSGVPSRFSGSGSGTDFTLTISSLQPEDFATYYCSQSTHVPLTFGQGTKVEIKR | 6.3 | 0.002 | 317000 | 2.82 | 0.000274 | 97000
3 | 18F7.v4 IgG (antibody, name in Kabat numbering, V domains shown, IgG; Kabat numbering; also called 18F7-KV) VH: EVQLVESGGGLVQPGGSLRLSCAASGYTFIDYYMNWVRQAPGKGLEWVGDINLDNGGTHYNQKFKGRFTISRDKSKNTVYLQMNSLRAEDTAVYYCAREGVYHDYDDYAMDYWGQGTLVTVSS VL: DIQMTQSPSSLSASVGDRVTITCRTSQSLVHINGITYLHWYQQKPGKAPKLLIYRVSNRFSGVPSRFSGSGSGTDFTLTISSLQPEDFATYYCSQSTHVPLTFGQGTKVEIKR | 7.27 | 0.00132 | 182000 | 4.15 | 0.000208 | 50000

Further binders by falling Kd [1], results first:

Row | Kd [1] [nM] | koff [1] [s⁻¹] | kon [1] [M⁻¹ s⁻¹] | Kd [2] [nM] | koff [2] [s⁻¹] | kon [2] [M⁻¹ s⁻¹] | Binder
4 | 5.1 | 0.00154 | 303000 | 9.9 | 0.000474 | 48000 | 18F7.v6E IgG (antibody, V domains shown, IgG; Variant of 18F7.v6) VH: EVQLVESGGGLVQPGGSLRLSCAASGYTFIDYYMNWVRQAPGKGLEWVGDINLDNSGTHYNQKFKGRFTISRDKSKNTAYLQMNSLRAEDTAVYYCAREGVYHDYDDYAMDYWGQGTLVTVSS VL: DIQMTQSPSSLSASVGDRVTITCRTSQSLVHISGITYLHWYQQKPGKAPKLLIYRVSNRFSGVPSRFSGSGSGTDFTLTISSLQPEDFATYYCGQSTHVPLTFGQGTKVEIK
5 | 2.7 | 0.000892 | 330000 | 1.61 | 0.000117 | 73000 | 18F7.v5 IgG (antibody, V domains shown, IgG; Kabat numbering) VH: EVQLVESGGGLVQPGGSLRLSCAASGYTFIDYYMNWVRQAPGKGLEWVGDINLDNGGTHYNQKFKGRFTISRDKSKNTAYLQMNSLRAEDTAVYYCAREGVYHDYDDYAMDYWGQGTLVTVSS VL: DIQMTQSPSSLSASVGDRVTITCRTSQSLVHINGITYLHWYQQKPGKAPKLLIYRVSNRGSGVPSRFSGSGSGTDFTLTISSLQPEDFATYYCSQSTHVPLTFGQGTKVEIK
6 | 2.59 | 0.00119 | 458000 | 1.81 | 0.000198 | 110000 | 18F7.v2 IgG (antibody, name in Kabat numbering, V domains shown, IgG; Kabat numbering; also called 18F7-K) VH: EVQLVESGGGLVQPGGSLRLSCAASGYTFIDYYMNWVRQAPGKGLEWVGDINLDNGGTHYNQKFKGRFTISRDKSKNTLYLQMNSLRAEDTAVYYCAREGVYHDYDDYAMDYWGQGTLVTVSS VL: DIQMTQSPSSLSASVGDRVTITCRTSQSLVHINGITYLHWYQQKPGKAPKLLIYRVSNRFSGVPSRFSGSGSGTDFTLTISSLQPEDFATYYCSQSTHVPLTFGQGTKVEIKR
